In assay [1] the target is FBXO44 (F-box only protein 44) (UniProt Q9H4M3). Description: co-IP with anti-Flag, Western blot. Particulars: reference: Myc-FOXP1 wild type with His-AURKA; sites S440.
The target of a further assay is T1, Purified Myc-FOXP1 (UniProt Q9H334 1-677).
T1 construct: Forkhead box protein P1 (FOXP1), Myc-tagged, purified for the GST pull-down; source: purified
T1 sequence (looked up): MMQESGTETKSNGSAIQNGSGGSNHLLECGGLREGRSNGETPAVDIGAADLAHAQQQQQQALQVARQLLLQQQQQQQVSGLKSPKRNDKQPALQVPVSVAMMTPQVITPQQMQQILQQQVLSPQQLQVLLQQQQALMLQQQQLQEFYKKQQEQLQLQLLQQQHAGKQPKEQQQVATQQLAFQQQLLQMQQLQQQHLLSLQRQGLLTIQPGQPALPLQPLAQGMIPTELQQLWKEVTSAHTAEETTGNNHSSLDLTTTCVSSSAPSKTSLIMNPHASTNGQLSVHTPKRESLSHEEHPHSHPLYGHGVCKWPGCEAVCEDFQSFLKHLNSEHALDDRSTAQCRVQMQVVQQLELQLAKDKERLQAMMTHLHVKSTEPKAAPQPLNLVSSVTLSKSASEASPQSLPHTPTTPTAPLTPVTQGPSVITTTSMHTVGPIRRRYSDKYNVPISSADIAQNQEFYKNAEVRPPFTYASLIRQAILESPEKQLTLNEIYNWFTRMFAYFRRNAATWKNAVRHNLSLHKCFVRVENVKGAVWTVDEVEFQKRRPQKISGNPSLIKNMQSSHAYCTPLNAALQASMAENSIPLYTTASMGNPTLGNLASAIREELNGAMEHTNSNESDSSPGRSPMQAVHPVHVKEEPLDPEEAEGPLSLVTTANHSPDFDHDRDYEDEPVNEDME
The assay is described as follows: pull-down; GST-FBXO44 coupled to glutathione-Sepharose beads incubated with purified Myc-FOXP1; retained proteins analysed by immunoblot. Particulars: both partners purified.

2 molecules from PMC12713037, “FBXO44 Regulates FOXP1 Degradation Through AURKA‐Dependent Phosphorylation to Promote Colorectal Cancer Progression” (Advanced Science, 2025) can be followed below.

As to “FOXP1 (Forkhead box protein P1) (from UniProt Q9H334) Myc-FOXP1 S440A with His-AURKA”, in assay [1], the “binding against the reference” value was “weaker”.

B1: Recombinant GST-FBXO44 (natural protein, UniProt Q9H4M3 1-255, looked up)
chain: MAVGNINELPENILLELFTHVPARQLLLNCRLVCSLWRDLIDLVTLWKRKCLREGFITEDWDQPVADWKIFYFLRSLHRNLLHNPCAEEGFEFWSLDVNGGDEWKVEDLSRDQRKEFPNDQVKKYFVTSYYTCLKSQVVDLKAEGYWEELMDTTRPDIEVKDWFAARPDCGSKYQLCVQLLSSAHAPLGTFQPDPATIQQKSDAKWREVSHTFSNYPPGVRYIWFQHGGVDTHYWAGWYGPRVTNSSITIGPPLP
notes: F-box only protein 44 (FBXO44) fused to GST; source: purified from bacteria
For the molecule B1, the binding result with Purified Myc-FOXP1 was “binds”.
